Experimental data reported in patent US20170044545, “APTAMER FOR BONDING TO AUTOTAXIN AND INHIBITING BIOLOGICAL ACTIVITY OF AUTOTAXIN, AND USE FOR SAME” (RIBOMIC INC., published 2017).

B1: SEQ 16(21) (mixed)
RNA: UCUGAGGGAAACAGGUUUUGCUCCUCGGA
modifications: 2'-F all pyrimidines; 2'-OMe G4 A5 G6 G7 A9 A11 A13 G20 G27 G28 A29; 2'-OH A10; dG8 dG14 dG15; 5' and 3' idT
B2: SEQ 9 clone (ssRNA)
RNA: GGGUGGCAACAGGACAUGGAACGCGCCCCAACUGCUUGAAACUGGUUUUGCUGAGCAGUGAUGUGAGAUGCGUCUUCGUAC
modifications: 2'-F pyrimidines, 2'-OH purines
B3: SEQ 4 aptamer (ssRNA)
RNA: GGGACCGCACUCUAAACGCUCUGAGGGAAACAGGUUUUGCUCCUCGGAGCGUGGACGAAGUGAGACGUAUCCG
modifications: 2'-F pyrimidines, 2'-OH purines
B4: SEQ 16(60) (mixed)
RNA: UCUGAGGGAAACAGGUUUUGCUCCUCGGA
modifications: dT1; 2'-deoxy G8,G14,G15,C23,C26; 2'-OMe G4,A5,G6,G7,A9,A11,A13,U19,G20,G27,G28,A29; 2'-OH A10 with PS; other pyrimidines 2'-F; 5' and 3' idT
B5: SEQ 16(58) (mixed)
RNA: UCUGAGGGAAACAGGUUUUGCUCCUCGGA
modifications: dT1; 2'-deoxy G8,G14,G15,C23,C26; 2'-OMe G4,A5,G6,G7,A9,A11,A13,G20,C21,G27,G28,A29; 2'-OH A10 with PS; other pyrimidines 2'-F; 5' and 3' idT
B6: SEQ 16(52) (mixed)
RNA: UCUGAGGGAAACAGGUUUUGCUCCUCGGA
modifications: dT1; 2'-deoxy G8,G14,G15; 2'-OMe G4,A5,G6,G7,A9,A11,A13,G20,G27,G28,A29; 2'-OH A10; other pyrimidines 2'-F; 5' 80 kDa PEG (GL2-800GS2)-ssH linker; 3' idT
B7: SEQ 16(50) (mixed)
RNA: UCUGAGGGAAACAGGUUUUGCUCCUCGGA
modifications: 2'-deoxy G8,G14,G15,C23,C26; 2'-OMe G4,A5,G6,G7,A9,A11,A13,G20,G27,G28,A29; 2'-OH A10; other pyrimidines 2'-F; 5' 80 kDa PEG (GL2-800GS2)-ssH linker; 3' idT
B8: SEQ 16(67) (mixed)
RNA: UCUGAGGGAAACAGGUUUUGCUCCUCGGA
modifications: dT1; 2'-deoxy G8,G14,G15,C23,C26; 2'-OMe C2,U3,G4,A5,G6,G7,A9,A11,A13,G20,C21,U22,C24,U25,G27,G28,A29; 2'-OH A10 with PS; other pyrimidines 2'-F; 5' 80 kDa PEG (GL2-800GS2)-ssH linker; 3' idT
B9: SEQ 16(61) (mixed)
RNA: UCUGAGGGAAACAGGUUUUGCUCCUCGGA
modifications: dT1; 2'-deoxy G8,G14,G15,C23,C26; 2'-OMe G4,A5,G6,G7,A9,A11,A13,U17,G20,G27,G28,A29; 2'-OH A10 with PS; other pyrimidines 2'-F; 5' and 3' idT
B10: SEQ 16(51) (mixed)
RNA: UCUGAGGGAAACAGGUUUUGCUCCUCGGA
modifications: 2'-deoxy G8,G14,G15,C23,C26; 2'-OMe G4,A5,G6,G7,A9,A11,A13,G20,G27,G28,A29; 2'-OH A10 with PS; other pyrimidines 2'-F; 5' 80 kDa PEG (GL2-800GS2)-ssH linker; 3' idT
B11: SEQ 16(57) (mixed)
RNA: UCUGAGGGAAACAGGUUUUGCUCCUCGGA
modifications: dT1; 2'-deoxy G8,G14,G15,C23,C26; 2'-OMe G4,A5,G6,G7,A9,A11,A13,G20,U22,G27,G28,A29; 2'-OH A10 with PS; other pyrimidines 2'-F; 5' and 3' idT
B12: SEQ 16(54) (mixed)
RNA: UCUGAGGGAAACAGGUUUUGCUCCUCGGA
modifications: dT1,dC2,dT3; 2'-deoxy G8,G14,G15,C23,C24,C26; 2'-OMe G4,A5,G6,G7,A9,A11,A13,G20,G27,G28,A29; 2'-OH A10 with PS; other pyrimidines 2'-F; 5' 80 kDa PEG (GL2-800GS2)-ssH linker; 3' idT
B13: SEQ 16(64) (mixed)
RNA: UCUGAGGGAAACAGGUUUUGCUCCUCGGA
modifications: dT1; 2'-deoxy G8,G14,G15,C23,C26; 2'-OMe G4,A5,G6,G7,A9,A11,A13,G20,G27,G28,A29; 2'-OH A10 with PS; other pyrimidines 2'-F; 5' 80 kDa PEG (GL4-800GS2)-ssH linker; 3' idT
B14: SEQ 16(59) (mixed)
RNA: UCUGAGGGAAACAGGUUUUGCUCCUCGGA
modifications: dT1; 2'-deoxy G8,G14,G15,C23,C26; 2'-OMe G4,A5,G6,G7,A9,A11,A13,U16,G20,G27,G28,A29; 2'-OH A10 with PS; other pyrimidines 2'-F; 5' and 3' idT
B15: SEQ 16(66) (mixed)
RNA: UCUGAGGGAAACAGGUUUUGCUCCUCGGA
modifications: dT1; 2'-deoxy G8,G14,G15,C23,C26; 2'-OMe C2,U3,G4,A5,G6,G7,A9,A11,A13,G20,U22,C24,U25,G27,G28,A29; 2'-OH A10 with PS; other pyrimidines 2'-F; 5' 40 kDa PEG (GL2-400GS2)-ssH linker; 3' idT
B16: SEQ 16(53) (mixed)
RNA: UCUGAGGGAAACAGGUUUUGCUCCUCGGA
modifications: dT1; 2'-deoxy G8,G14,G15; 2'-OMe G4,A5,G6,G7,A9,A11,A13,G20,G27,G28,A29; 2'-OH A10 with PS; other pyrimidines 2'-F; 5' 80 kDa PEG (GL2-800GS2)-ssH linker; 3' idT
B17: SEQ 16(56) (mixed)
RNA: UCUGAGGGAAACAGGUUUUGCUCCUCGGA
modifications: dT1; 2'-deoxy G8,G14,G15,C23,C26; 2'-OMe G4,A5,G6,G7,A9,A11,A13,G20,C24,U25,G27,G28,A29; 2'-OH A10 with PS; other pyrimidines 2'-F; 5' and 3' idT
B18: SEQ 16(62) (mixed)
RNA: UCUGAGGGAAACAGGUUUUGCUCCUCGGA
modifications: dT1; 2'-deoxy G8,G14,G15,C23,C26; 2'-OMe G4,A5,G6,G7,A9,A11,A13,U18,G20,G27,G28,A29; 2'-OH A10 with PS; other pyrimidines 2'-F; 5' and 3' idT
B19: SEQ 16(63) (mixed)
RNA: UCUGAGGGAAACAGGUUUUGCUCCUCGGA
modifications: dT1; 2'-deoxy G8,G14,G15,C23,C26; 2'-OMe G4,A5,G6,G7,A9,A11,A13,G20,G27,G28,A29; 2'-OH A10 with PS; other pyrimidines 2'-F; 5' 40 kDa PEG (GL2-400GS2)-ssH linker; 3' idT

target: T1, Autotaxin (ENPP2, NPP2) (Homo sapiens, UniProt Q13822 Q13822:36-863); assay: SPR; conditions: not given

| Binder | binding result |
| --- | --- |
| UCUGAGGGAAACAGGUUUGCUCCUCGGA (ssRNA, 2'-F pyrimidines, 2'-OH purines) [SEQ 36] | no binding |
| UCUGAGGGAACAGGUUUUGCUCCUCGGA (ssRNA, 2'-F pyrimidines, 2'-OH purines) [SEQ 37] | no binding |
| UCUGAGGGAUACAGGUAUUGCUCCUCGGA (ssRNA, 2'-F pyrimidines, 2'-OH purines) [SEQ 27] | no binding |
| UCUGAGGGAAGCAGGUUUUGCUCCUCGGA (ssRNA, 2'-F pyrimidines, 2'-OH purines) [SEQ 35] | no binding |
| UCUGAGGGAAUCAGGAUUUGCUCCUCGGA (ssRNA, 2'-F pyrimidines, 2'-OH purines) [SEQ 28] | no binding |

target: T1, Autotaxin (ENPP2, NPP2); assay: inhibition; conditions: not given

| Binder | IC50 [nM] |
| --- | --- |
| UCUGAGGGAAACAGGUUUUGCUCCUCGGA (mixed, as 16(21) with PS at A10) [SEQ 16(22)] | 0.5 |
| UCUGAGGGAAACAGGUUUUGCUCCUCGGA (mixed, as 16(21) with dC24) [SEQ 16(28)] | 2.7 |
| B1 | 2.2 |
| UCUGAGGGAAACAGGUUUUGCUCCUCGGA (mixed, as 16(4) with dC12) [SEQ 16(20)] | 44 |
| UCUGAGGGAACAGGUUUUGCUCCUCGGA (ssRNA, 2'-F pyrimidines, 2'-OH purines) [SEQ 37] | 720 |
| UCUGAGGGAAACAGGUUUUGCUCCUCGGA (mixed, as 16(22) with 5' 40 kDa PEG (GL2-400GS2)-ssH linker instead of 5' idT) [SEQ 16(23)] | 1.1 |
| UCUGAGGGAAACAGGUUUUGCUCCUCGGA (mixed, as 16(21) with dT1 dC2 dT3) [SEQ 16(25)] | 2.3 |
| UCUGAGGGAAACAGGUUUUGCUCCUCGGA (mixed, as 16(21) with dC23) [SEQ 16(29)] | 3.3 |
| UCUGAGGGAAACAGGUUUUGCUCCUCGGA (mixed, as 16(21) with dT1 dC2 dT3 dC23 dC24 dC26) [SEQ 16(32)] | 1.4 |
| UCUGAGGGAAACAGGUUUUGCUCCUCGGA (mixed, as 16(4) with dT16) [SEQ 16(19)] | 51 |
| UCUGAGGGAAACAGGUUUUGCUCCUCGGA (mixed, as 16(21) with dC26) [SEQ 16(26)] | 2.1 |
| GGGAAACAGGUUUUGCUCC (ssRNA, 2'-F pyrimidines, 2'-OH purines) [SEQ 22] | 950 |
| UCUGAGGGAAACAGGUUUUGCUCCUCGGA (mixed, as 16(21) with 5' 40 kDa PEG (GL2-400GS2)-ssH linker instead of 5' idT) [SEQ 16(24)] | 7.4 |
| UCUGAGGGAAACAGGUUUUGCUCCUCGGA (mixed, as 16(21) with dT25) [SEQ 16(27)] | 3.2 |
| UCUGAGGGAAACAGGUUUUGCUCCUCGGA (mixed, as 16(22) with ssH linker instead of 5' idT) [SEQ 16(31)] | 0.8 |
| UCUGAGGGAAACAGGUUUUGCUCCUCGGA (mixed, as 16(21) with ssH linker instead of 5' idT) [SEQ 16(30)] | 4.4 |

target: FGF2 (UniProt P09038 P09038:135-288); assay: SPR; FGF2 immobilized about 1100 RU; specificity control; conditions: tags: PeproTech
Sequence (P09038 135-288, one chain of several): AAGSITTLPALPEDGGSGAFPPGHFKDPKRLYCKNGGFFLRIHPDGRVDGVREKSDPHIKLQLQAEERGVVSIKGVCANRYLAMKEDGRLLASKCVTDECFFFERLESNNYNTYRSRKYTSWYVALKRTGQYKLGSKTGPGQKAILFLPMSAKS
Experimental: Whether the nucleic acids of SEQ ID NOs: 8 and 9 bind to autotaxin was evaluated by the surface plasmon resonance method. For the measurement, Biacore T100 manufactured by GE Healthcare was used, and the measurement was performed by the method shown below. About 2700 RU autotaxin was immobilized on a sensorchip surface of CM4 chip by using an amino coupling kit. The flow rate was 20 μL/min, and nucleic acids (20 μL) prepared to 0.3 μM were injected as an analyte. As a running buffer, solution A was used. In Table 1, nucleic acids showing a binding amount of not more than 10% of that of the aptamer of SEQ ID NO: 4 were considered not binding and marked with (−), and ones not less than that were considered binding and marked with (+).
Whether the aptamer shown in SEQ ID NO: 16(23) has a binding activity to FGF2 (PeproTech) was confirmed by the surface plasmon resonance method. Autotaxin was immobilized on a flow cell 2 and FGF2 was immobilized on a flow cell 3 (about 1100 RU), and the aptamer was injected. The rest was performed similarly to Example 2.

| Binder | binding result |
| --- | --- |
| UCUGAGGGAAACAGGUUUUGCUCCUCGGA (mixed, as 16(22) with 5' 40 kDa PEG (GL2-400GS2)-ssH linker instead of 5' idT) [SEQ 16(23)] | no binding |

target: T1, Autotaxin (ENPP2, NPP2); assay: SPR; not more than 10% of SEQ 4; conditions: not given

| Binder | binding result |
| --- | --- |
| B2 | no binding |
| GGAAACAGGUUUUGCUC (ssRNA, 2'-F pyrimidines, 2'-OH purines) [SEQ 23] | no binding |
| GGGAAACAGGUUUUGCUCC (ssRNA, 2'-F pyrimidines, 2'-OH purines) [SEQ 22] | no binding |

target: T1, Autotaxin (ENPP2, NPP2); assay: inhibition; text prints 3' CCUGGA, listing ccucgga; conditions: not given

| Binder | IC50 [nM] |
| --- | --- |
| UCUGAGGGAAACAGGUUCUGCUCCUCGGA (ssRNA, 2'-F pyrimidines, 2'-OH purines) [SEQ 46] | 50 |

target: T1, Autotaxin (ENPP2, NPP2); assay: inhibition; listing sequence lacks U7 printed in text; conditions: not given

| Binder | IC50 [nM] |
| --- | --- |
| UCUGAGUGAAACAGGUUUUGCUGCUCGGA (ssRNA, 2'-F pyrimidines, 2'-OH purines [2'-F at all C and U; A and G 2'-OH]) [SEQ 48] | 44 |

target: T1, Autotaxin (ENPP2, NPP2); assay: inhibition; pNP-TMP 1 mM, autotaxin 0.3 nM, 37 C 24 h, solution A; conditions: not given

| Binder | IC50 [nM] |
| --- | --- |
| B3 | 7 |

target: T1, Autotaxin (ENPP2, NPP2); assay: inhibition; NPP2 assay, pNP-TMP substrate, solution A (Ca, Mg), 37 C; conditions: not given

| Binder | IC50 [nM] |
| --- | --- |
| B4 | 23 |
| B5 | 0.6 |
| B6 | 9.4 |
| B7 | 12 |
| B8 | 0.6 |
| B9 | 23 |
| B10 | 2.8 |
| B11 | 0.3 |
| B12 | 2.3 |
| B13 | 1.3 |
| B14 | 16 |
| B15 | 0.7 |
| B16 | 2.7 |
| B17 | 0.2 |
| B18 | 23 |
| B19 | 0.8 |
